The text below walks through data of patent US20170363644.

The target of this data set is Aβ42 oligomers, P05067.

B1: factor XII (FXII) (protein)
chain: IPPWEAPKEHKYKAEEHTVVLTVTGEPCHFPFQYHRQLYHKCTHKGRPGPQPWCATTPNFDQDQRWGYCLEPKKVKDHCSKHSPCQKGGTCVNMPSGPHCLCPQHLTGNHCQKEKCFEPQLLRFFHKNEIWYRTEQAAVARCQCKGPDAHCQRLASQACRTNPCLHGGRCLEVEGHRLCHCPVGYTGAFCDVDTKASCYDGRGLSYRGLARTTLSGAPCQPWASEATYRNVTAEQARNWGLGGHAFCRNPDNDIRPWCFVLNRDRLSWEYCDLAQCQTPTQAAPPTPVSPRLHVPLMPAQPAPPKPQPTTRTPPQSQTPGALPAKREQPPSLTRNGPLSCGQRLRKSLSSMTRVVGGLVALRGAHPYIAALYWGHSFCAGSLIAPCWVLTAAHCLQDRPAPEDLTVVLGQERRNHSCEPCQTLAVRSYRLHEAFSPVSYQHDLALLRLQEDADGSCALLSPYVQPVCLPSGAARPSETTLCQVAGWGHQFEGAEEYASFLQEAQVPFLSLERCSAPDVHGSSILPGMLCAGFLEGGTDACQGDSGGPLVCEDQAAERRLTLQGIISWGSGCGDRNKPGVYTDVAYYLAWIREHTVS
Take B1: the “FXII autoactivation, chromogenic substrate assay with purified FXII” value was “Aβ42 oligomers can directly induce FXII autoactivation”; the “FXII cleavage in human plasma (Western blot: FXII zymogen and FXIIa heavy chain)” value is “plasma incubated with Aβ42 had decreased FXII zymogen and increased FXIIa heavy chain compared to incubation with vehicle”.
